Laboratory results: patent US20170362327A1 (GLENMARK PHARMACEUTICALS S A, published 2017)

Columns and labels:
[1] = molecular target: T1, monovalent human TrkA extracellular region (human, UniProt P04629 33-423); assay: SPR (BIAcore 2000), antibody captured via anti-mouse immunoglobulin, monovalent TrkA extracellular region as analyte
T1 construct: also called recombinant monovalent human TrkA extracellular domain
Method: (§1) SPR analysis was used to measure the association and dissociation rate constants for the binding kinetics of the different antibodies (mouse and humanized antibodies). The binding kinetics of the mouse antibody and humanized variants were measured on a BIACORE 2000 instrument (GE Healthcare Europe GmbH, Glattbrugg, Switzerland) at room temperature, and analyzed with the BiaEvaluation software (v4.1, GE Healthcare Europe GmbH, Glattbrugg, Switzerland).
(§2) Antibodies were immobilized via capture of their Fc portion to allow for correct orientation on the sensor chip surface. A monoclonal mouse anti-human IgG (Fc) antibody sensor chip was used to capture all humanized antibodies regardless of their isotypes (Human Antibody Capture Kit, catalogue number BR-1008-39, GE Healthcare Europe GmbH), and a polyclonal rabbit anti-mouse immunoglobulin sensor chip was used to capture the MNAC13 mouse antibody (Mouse Antibody Capture Kit, catalogue number BR-1008-38, GE Healthcare Europe GmbH).
(§3) Data (sensorgram: fc2-fc1) were fitted with a 1:1 Langmuir model with mass transfer in spite of having little mass transfer limitation in mass transfer tests. To account for the experimental variations in captured antibody at the beginning of each measurement, the Rmax value was set to local in all fits. Dissociation times were of at least 350 seconds. Measurements were performed in triplicate, and included zero-concentration samples for referencing. Both Chi2 and residual values were used to evaluate the quality of a fit between the experimental data and individual binding models.

[2] = molecular target: T1, monovalent human TrkA extracellular …; assay: SPR (BIAcore 2000), antibody captured via Fc, monovalent TrkA extracellular region as analyte
Method: as §1, §2, §3

[3] = molecular target: T1, monovalent human TrkA extracellular …; assay: as above; remark: listed apart in the source
Method: as §1, §2, §3

[4] = molecular target: T1, monovalent human TrkA extracellular …; assay: SPR, against BXhVH5VL1
Method: as §1, §2, §3

T1 sequence (P04629 33-423): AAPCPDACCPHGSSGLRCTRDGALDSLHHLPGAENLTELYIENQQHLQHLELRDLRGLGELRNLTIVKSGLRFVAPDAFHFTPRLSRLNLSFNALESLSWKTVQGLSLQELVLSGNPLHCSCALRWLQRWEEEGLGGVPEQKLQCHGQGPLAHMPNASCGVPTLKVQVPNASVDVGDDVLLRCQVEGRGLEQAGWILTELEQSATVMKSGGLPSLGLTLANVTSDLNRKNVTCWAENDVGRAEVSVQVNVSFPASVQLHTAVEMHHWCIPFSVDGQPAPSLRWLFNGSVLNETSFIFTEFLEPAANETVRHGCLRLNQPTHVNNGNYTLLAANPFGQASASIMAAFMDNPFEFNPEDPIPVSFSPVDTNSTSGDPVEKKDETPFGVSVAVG

| Binder | Kd [2] | Kd [3] | koff [3] | kon [3] | also measured |
| --- | --- | --- | --- | --- | --- |
| MNAC13 mouse antibody (antibody, mouse IgG1, kappa, V domains shown, Mouse monoclonal anti-TrkA antibody; also called parental murine antibody) VH: EVKLVESGGGLVQPGGSLKLSCAASGFTFSTYTMSWARQTPEKRLEWVAYISKGGGSTYYPDTVKGRFTISRDNAKNTLYLQMSSLKSEDTALYYCARGAMYGNDFFYPMDYWGQGTSVTVSS VL: QIVLTQSPAIMSASLGEEITLTCSASSSVSYMHWYQQKSGTSPKLLIYTTSNLASGVPSRFSGSGSGTFYSLTISSVEAEDAADYYCHQWSSYPWTFGGGTKLEIKA |  |  |  |  | Kd [1]: 18 nM; koff [1]: 0.00109 s⁻¹; kon [1]: 60200 M⁻¹ s⁻¹ |
| GBR VH5(V37A)VL1 IGHG4 S228P (antibody, human IgG4 S228P, kappa, IGHG4 isotype with S228P (EU) hinge substitution, kappa) heavy: not shown light: EIVLTQSPATLSLSPGERATLSCSASSSVSYMHWYQQKPGQAPRLLIYTTSNLASGIPARFSGSGSGTDFTLTISSLEPEDFAVYYCHQWSSYPWTFGQGTKLEIKRTVAAPSVFIFPPSDEQLKSGTASVVCLLNNFYPREAKVQWKVDNALQSGNSQESVTEQDSKDSTYSLSSTLTLSKADYEKHKVYACEVTHQGLSSPVTKSFNRGEC | 15 nM |  |  |  |  |
| GBR VH5(K3Q,V37A)VL1 IGHG4 S228P (antibody, human IgG4 S228P, kappa, IGHG4 isotype with S228P (EU) hinge substitution, kappa) heavy: not shown light: EIVLTQSPATLSLSPGERATLSCSASSSVSYMHWYQQKPGQAPRLLIYTTSNLASGIPARFSGSGSGTDFTLTISSLEPEDFAVYYCHQWSSYPWTFGQGTKLEIKRTVAAPSVFIFPPSDEQLKSGTASVVCLLNNFYPREAKVQWKVDNALQSGNSQESVTEQDSKDSTYSLSSTLTLSKADYEKHKVYACEVTHQGLSSPVTKSFNRGEC | 15 nM |  |  |  |  |
| BXhVH1VL1 (antibody, human IgG1, kappa, V domains shown, IGHG1, kappa) VH: EVQLLESGGGLVQPGGSLRLSCAASGFTFSTYTMSWVRQAPGKGLEWVSYISKGGGSTYYPDTVKGRFTISRDNSKNTLYLQMNSLRAEDTAVYYCAKGAMYGNDFFYPMDYWGQGTTVTVSS VL: EIVLTQSPATLSLSPGERATLSCSASSSVSYMHWYQQKPGQAPRLLIYTTSNLASGIPARFSGSGSGTDFTLTISSLEPEDFAVYYCHQWSSYPWTFGQGTKLEIKR |  | 426 nM | 0.0133 s⁻¹ | 31300 M⁻¹ s⁻¹ |  |
| GBR VH5(K3Q, V37A, R44G)VL1 (antibody, human IgG1, kappa, V domains shown, IGHG1, kappa) VH: EVQLLESGGGLVQPGGSLRLSCAASGFTFSTYTMSWARQTPGKGLEWVAYISKGGGSTYYPDTVKGRFTISRDNSKNTLYLQMNSLRAEDTAVYYCARGAMYGNDFFYPMDYWGQGTTVTVSS VL: EIVLTQSPATLSLSPGERATLSCSASSSVSYMHWYQQKPGQAPRLLIYTTSNLASGIPARFSGSGSGTDFTLTISSLEPEDFAVYYCHQWSSYPWTFGQGTKLEIKR | 20 nM |  |  |  |  |
| GBR VH5(K3Q, V37A, T40A, P60A, T62S)VL1 (antibody, human IgG1, kappa, V domains shown, IGHG1, kappa) VH: EVQLLESGGGLVQPGGSLRLSCAASGFTFSTYTMSWARQAPGKRLEWVAYISKGGGSTYYADSVKGRFTISRDNSKNTLYLQMNSLRAEDTAVYYCARGAMYGNDFFYPMDYWGQGTTVTVSS VL: EIVLTQSPATLSLSPGERATLSCSASSSVSYMHWYQQKPGQAPRLLIYTTSNLASGIPARFSGSGSGTDFTLTISSLEPEDFAVYYCHQWSSYPWTFGQGTKLEIKR | 48 nM |  |  |  |  |
| GBR VH1(V37A)VL1 (antibody, human IgG1, kappa, V domains shown, IGHG1, kappa) VH: EVQLLESGGGLVQPGGSLRLSCAASGFTFSTYTMSWARQAPGKGLEWVSYISKGGGSTYYPDTVKGRFTISRDNSKNTLYLQMNSLRAEDTAVYYCAKGAMYGNDFFYPMDYWGQGTTVTVSS VL: EIVLTQSPATLSLSPGERATLSCSASSSVSYMHWYQQKPGQAPRLLIYTTSNLASGIPARFSGSGSGTDFTLTISSLEPEDFAVYYCHQWSSYPWTFGQGTKLEIKR |  | 338 nM | 0.00663 s⁻¹ | 19600 M⁻¹ s⁻¹ |  |
| BXhVH3VL3 (antibody, human IgG1, kappa, V domains shown, IGHG1, kappa) VH: EVQLLESGGGLVQPGGSLRLSCAASGFTFSTYTMSWVRQTPGKRLEWVAYISKGGGSTYYPDTVKGRFTISRDNSKNTLYLQMNSLRAEDTAVYYCAKGAMYGNDFFYPMDYWGQGTTVTVSS VL: QIVLTQSPATLSLSPGERATLSCSASSSVSYMHWYQQKPGQSPRLLIYTTSNLASGIPSRFSGSGSGTFYTLTISSLEPEDFAVYYCHQWSSYPWTFGGGTKLEIKR |  | 134 nM | 0.00459 s⁻¹ | 31400 M⁻¹ s⁻¹ |  |
| GBR VH5(R94K)VL1 (antibody, human IgG1, kappa, IGHG1, kappa) heavy: not shown light: EIVLTQSPATLSLSPGERATLSCSASSSVSYMHWYQQKPGQAPRLLIYTTSNLASGIPARFSGSGSGTDFTLTISSLEPEDFAVYYCHQWSSYPWTFGQGTKLEIKRTVAAPSVFIFPPSDEQLKSGTASVVCLLNNFYPREAKVQWKVDNALQSGNSQESVTEQDSKDSTYSLSSTLTLSKADYEKHKVYACEVTHQGLSSPVTKSFNRGEC | 52 nM |  |  |  |  |
| GBR VH5(K3Q,V37A)VL1 (antibody, human IgG1, kappa, IGHG1, kappa) heavy: not shown light: EIVLTQSPATLSLSPGERATLSCSASSSVSYMHWYQQKPGQAPRLLIYTTSNLASGIPARFSGSGSGTDFTLTISSLEPEDFAVYYCHQWSSYPWTFGQGTKLEIKRTVAAPSVFIFPPSDEQLKSGTASVVCLLNNFYPREAKVQWKVDNALQSGNSQESVTEQDSKDSTYSLSSTLTLSKADYEKHKVYACEVTHQGLSSPVTKSFNRGEC | 15.4 nM | 15.4 nM | 0.00262 s⁻¹ | 170000 M⁻¹ s⁻¹ | fold decrease of KD against BXhVH5VL1 [4]: 2.7 fold |

Continued, in another order:

| Kd [2] | Kd [3] | koff [3] | kon [3] | Binder | also measured |
| --- | --- | --- | --- | --- | --- |
|  | 133 nM | 0.00619 s⁻¹ | 46500 M⁻¹ s⁻¹ | BXhVH3VL1 (antibody, human IgG1, kappa, IGHG1, kappa) heavy: not shown light: EIVLTQSPATLSLSPGERATLSCSASSSVSYMHWYQQKPGQAPRLLIYTTSNLASGIPARFSGSGSGTDFTLTISSLEPEDFAVYYCHQWSSYPWTFGQGTKLEIKRTVAAPSVFIFPPSDEQLKSGTASVVCLLNNFYPREAKVQWKVDNALQSGNSQESVTEQDSKDSTYSLSSTLTLSKADYEKHKVYACEVTHQGLSSPVTKSFNRGEC |  |
| 16 nM | 16 nM | 0.00225 s⁻¹ | 140000 M⁻¹ s⁻¹ | GBR VH5(V37A)VL1 (antibody, human IgG1, kappa, IGHG1, kappa; also called GBR VH5(V37A)VL1 IGHG1 antibody; GBR VH5 (V37A)VL1 antibody) heavy: not shown light: EIVLTQSPATLSLSPGERATLSCSASSSVSYMHWYQQKPGQAPRLLIYTTSNLASGIPARFSGSGSGTDFTLTISSLEPEDFAVYYCHQWSSYPWTFGQGTKLEIKRTVAAPSVFIFPPSDEQLKSGTASVVCLLNNFYPREAKVQWKVDNALQSGNSQESVTEQDSKDSTYSLSSTLTLSKADYEKHKVYACEVTHQGLSSPVTKSFNRGEC | fold decrease of KD against BXhVH5VL1 [4]: 2.5 fold; fold increase in affinity against BXhVH5VL1 [4]: 2.5 fold |
|  | 95 nM | 0.00295 s⁻¹ | 31000 M⁻¹ s⁻¹ | GBR VH3(V37A)VL3 (antibody, human IgG1, kappa, V domains shown, IGHG1, kappa) VH: EVQLLESGGGLVQPGGSLRLSCAASGFTFSTYTMSWARQTPGKRLEWVAYISKGGGSTYYPDTVKGRFTISRDNSKNTLYLQMNSLRAEDTAVYYCAKGAMYGNDFFYPMDYWGQGTTVTVSS VL: QIVLTQSPATLSLSPGERATLSCSASSSVSYMHWYQQKPGQSPRLLIYTTSNLASGIPSRFSGSGSGTFYTLTISSLEPEDFAVYYCHQWSSYPWTFGGGTKLEIKR |  |
|  | 63 nM | 0.00395 s⁻¹ | 62300 M⁻¹ s⁻¹ | BXhVH5VL3 (antibody, human IgG1, kappa, V domains shown) VH: EVKLLESGGGLVQPGGSLRLSCAASGFTFSTYTMSWVRQTPGKRLEWVAYISKGGGSTYYPDTVKGRFTISRDNSKNTLYLQMNSLRAEDTAVYYCARGAMYGNDFFYPMDYWGQGTTVTVSS VL: QIVLTQSPATLSLSPGERATLSCSASSSVSYMHWYQQKPGQSPRLLIYTTSNLASGIPSRFSGSGSGTFYTLTISSLEPEDFAVYYCHQWSSYPWTFGGGTKLEIKR |  |
|  | 28 nM | 0.00205 s⁻¹ | 74500 M⁻¹ s⁻¹ | GBR VH5(V37A)VL3 (antibody, human IgG1, kappa, V domains shown, IGHG1, kappa) VH: EVKLLESGGGLVQPGGSLRLSCAASGFTFSTYTMSWARQTPGKRLEWVAYISKGGGSTYYPDTVKGRFTISRDNSKNTLYLQMNSLRAEDTAVYYCARGAMYGNDFFYPMDYWGQGTTVTVSS VL: QIVLTQSPATLSLSPGERATLSCSASSSVSYMHWYQQKPGQSPRLLIYTTSNLASGIPSRFSGSGSGTFYTLTISSLEPEDFAVYYCHQWSSYPWTFGGGTKLEIKR |  |
|  | 123 nM | 0.00471 s⁻¹ | 38200 M⁻¹ s⁻¹ | GBR VH3(V37A)VL1 (antibody, human IgG1, kappa, V domains shown, IGHG1, kappa) VH: EVQLLESGGGLVQPGGSLRLSCAASGFTFSTYTMSWARQTPGKRLEWVAYISKGGGSTYYPDTVKGRFTISRDNSKNTLYLQMNSLRAEDTAVYYCAKGAMYGNDFFYPMDYWGQGTTVTVSS VL: EIVLTQSPATLSLSPGERATLSCSASSSVSYMHWYQQKPGQAPRLLIYTTSNLASGIPARFSGSGSGTDFTLTISSLEPEDFAVYYCHQWSSYPWTFGQGTKLEIKR |  |
